Reference: patent US6846803B1, “Antagonists specific for the corticotropin-releasing factor receptor type 2 (CRFR2)” (priority 1998, dated 2005)
Where two headings read alike, the source gives them in different places. Positions of bridges follow the written chain, without caps; N, C: chain ends. Non-standard residues stand in square brackets, D forms with d. No end group written: not given here. *: point of attachment. ATB = 4-(1-azi-2,2,2-trifluoroethyl)benzoyl, O=C(c1ccc(C2(C(F)(F)F)N=N2)cc1)*

T1: rCRFR1 (Rattus norvegicus, UniProt P35353)
T1 construct: expressed in transfected cells; host or cells: HEK 293 cells, stably transfected (HEK-rCRFR1)
T1 sequence (P35353 24-415): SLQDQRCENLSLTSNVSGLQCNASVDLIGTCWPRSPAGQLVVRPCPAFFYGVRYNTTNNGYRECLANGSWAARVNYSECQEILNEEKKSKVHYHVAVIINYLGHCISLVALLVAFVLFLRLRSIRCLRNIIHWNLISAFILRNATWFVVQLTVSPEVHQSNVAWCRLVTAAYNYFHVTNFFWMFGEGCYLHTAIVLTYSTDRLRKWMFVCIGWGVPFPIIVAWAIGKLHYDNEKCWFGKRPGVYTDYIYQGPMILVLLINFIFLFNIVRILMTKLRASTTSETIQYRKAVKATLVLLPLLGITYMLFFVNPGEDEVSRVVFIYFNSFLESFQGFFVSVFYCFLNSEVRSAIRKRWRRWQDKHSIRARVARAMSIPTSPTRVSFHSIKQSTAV

T2: rat CRF receptor, type 1 (rCRFR1) (rat, UniProt P35353 24-415)
T2 sequence (looked up): T1 sequence (P35353 24-415)


Key:
rCRFR1 [1] = biological target: T1, rCRFR1; assay: Displacement of [^125I-Tyr^0]oCRF from membranes of HEK-rCRFR1 cells; assay type: binding; settings: membranes of HEK-rCRFR1 cells; read-out: Kd, binding to rCRFR1
Procedure: (§1) Binding assays were performed in 96-well MultiScreen plates (Millipore, Eschborn, Germany) with GF/B filters (pore size 1.0 μm). […] After incubation (60 min, 23° C.), membrane suspension was aspirated through the plate, followed by two washes with assay buffer (0.2 ml, 23°). Radioactivity of the punched filters was measured with a 1470 WIZARD automatic gamma counter (Berthold, Hannover). […] Statistical analysis was performed with ANOVA, and significant differences between groups were determined by post hoc comparison using the Dunn test.
(§2) Membrane homogenates of human embryonic kidney (HEK) 293 cells stably transfected with cDNA coding for rat CRF receptor, type 1 (rCRFR1) or mouse CRF receptor, type 2β (mCRFR2β) were prepared according to standard protocols (see, e.g., Sambrook et al., Molecular Cloning: A Laboratory Manual, 2nd. Edition, Cold Spring Habor Laboratory Press, Cold Spring Habor, N.Y., 1989; Ausubel et al., Current Protocols in Molecular Biology, Green Publishing Associates and Wiley Interscience, NY, 1989).

mCRFR2β [2] = biological target: T3, mCRFR2β (Mus musculus, UniProt Q60748); assay: Displacement of [^125I-Tyr^0]Svg from membranes of HEK-mCRFR2β cells; assay type: binding; settings: for Selectivity: Kd(rCRFR1)(peptide)/Kd(rCRFR1)(astressin) × Kd(mCRFR2β)(astressin)/Kd(mCRFR2β)(peptide)
T3 construct: expressed in transfected cells; host or cells: HEK 293 cells, stably transfected (HEK-mCRFR2β); membrane homogenates
Procedure: as §1, §2

rCRFR1 [3] = biological target: T1, rCRFR1; assay: cAMP stimulation / inhibition of oCRF-stimulated cAMP production in HEK-rCRFR1 cells; assay type: cell-based; settings: for rCRFR1 relative in vitro potency: oCRF alone = 1.00 (lower = stronger inhibition)
Procedure: (§3) HEK-rCRFR1 cells or HEK-mCRFR2β cells were incubated with different CRF agonists in the presence or absence of 1 μM or 10 nM antagonist, or CRF antagonist (c=1 μM) alone. After removal of the medium, cells were lyzed with aqueous 6% trichloroacetic acid (5 min, 100° C.) (Rühmann, A., A. K. E. Köpke, F. M. Dautzenberg, and J. Spiess, Proc. Natl. Acad. Sci. USA 93: 10609-10613, 1996). The cell lysates were stored at −70° C. until assayed with a RIA kit (Amersham, Little Chalfont). […] Statistical significance was determined across groups with ANOVA, and significant differences between groups were determined by post hoc comparison using the Dunn test.
(§4) Intrinsic activities were measured at peptide concentrations generating maximal formation of cAMP in HEK-rCRFR1 or HEK-mCRFR2β cells.

mCRFR2β [4] = biological target: T3, mCRFR2β; assay: cAMP stimulation / inhibition of Svg-stimulated cAMP production in HEK-mCRFR2β cells; assay type: cell-based; settings: for mCRFR2β relative in vitro potency: Table 2, 10 nM antagonist, cAMP production stimulated by 1 nM Svg, Svg alone = 1.00 (lower = stronger inhibition)
Procedure: as §3, §4
Target sequence in this assay (Q60748 1-431 isoform Q60748-2): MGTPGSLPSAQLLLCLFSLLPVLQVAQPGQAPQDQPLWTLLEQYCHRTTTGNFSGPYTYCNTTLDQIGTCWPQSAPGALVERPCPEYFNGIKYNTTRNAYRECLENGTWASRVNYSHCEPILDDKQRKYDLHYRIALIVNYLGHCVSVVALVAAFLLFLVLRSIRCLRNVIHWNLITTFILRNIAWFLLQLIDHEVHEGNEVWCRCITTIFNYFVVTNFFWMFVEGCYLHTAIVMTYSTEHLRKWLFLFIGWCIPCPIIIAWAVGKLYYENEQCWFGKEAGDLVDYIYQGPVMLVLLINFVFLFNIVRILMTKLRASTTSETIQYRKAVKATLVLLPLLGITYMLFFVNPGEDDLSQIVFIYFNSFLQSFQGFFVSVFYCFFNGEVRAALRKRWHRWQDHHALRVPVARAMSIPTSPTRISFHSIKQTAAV

[5] = biological target: mouse CRF receptor, type 2β (mCRFR2β) (mouse) (UniProt Q60748); assay: displacement of [125I-Tyr0]Svg from HEK-mCRFR2β membranes
[6] = biological target: mouse CRF receptor, type 2β (mCRFR2β) (mouse) (UniProt Q60748); assay: Kd(rCRFR1)/Kd(mCRFR2β) of the peptide normalised to that of astressin; radioligand displacement
[7] = biological target: T2, rat CRF receptor, type 1 (rCRFR1); assay: cell-based or functional assay
[8] = biological target: T2, rat CRF receptor, type 1 (rCRFR1); assay: displacement of [125I-Tyr0]oCRF from HEK-rCRFR1 membranes
Procedure: as §1

[9] = biological target: T2, rat CRF receptor, type 1 (rCRFR1); assay: cell-based or functional assay; remark: listed apart in the source
[10] = biological target: T2, rat CRF receptor, type 1 (rCRFR1); assay: displacement of [125I-Tyr0]oCRF from HEK-rCRFR1 membranes; remark: listed apart in the source
Procedure: as §1

[11] = Table 2, 1 μM antagonist, cAMP production stimulated by 1 nM oCRF

Chain of sauvagine (Svg) (peptide) (peptide): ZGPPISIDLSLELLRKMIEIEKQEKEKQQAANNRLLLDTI

Molecule | Kd [5] [nM] | Selectivity [6] | rel. IA (relative intrinsic activity), cAMP production, HEK-rCRFR1 cells [7] | rel. pot. (relative potency), inhibition of oCRF-stimulated cAMP production, HEK-rCRFR1 cells [7] | Kd [8] [nM] | % IA (intrinsic activity), cAMP production, HEK-rCRFR1 cells [9] | further results
CC[C@H](C)[C@H](NC(=O)[C@H](CC(=O)O)NC(=O)[C@H](CC(C)C)NC(=O)[C@H](CC(C)C)NC(=O)[C@H](CCCCN)NC(=O)[C@H](CCCNC(=N)N)NC(=O)[C@H](CC(N)=O)NC(=O)[C@H](CO)NC(=O)[C@H](Cc1c[nH]cn1)NC(=O)[C@H](C)NC(=O)[C@H](CCC(N)=O)NC(=O)[C@H](CCC(N)=O)NC(=O)[C@H](C)NC(=O)[C@H](CC(C)C)NC(=O)[C@H](CCC(N)=O)NC(=O)[C@H](CC(=O)O)NC(=O)[C@H](C)NC(=O)[C@H](CCCCN)NC(=O)[C@@H](NC(=O)[C@H](CCSC)NC(=O)[C@H](CCC(=O)O)NC(=O)[C@H](CC(C)C)NC(=O)[C@@H](NC(=O)[C@H](CCC(=O)O)NC(=O)[C@H](CCCNC(=N)N)NC(=O)[C@H](CC(C)C)NC(=O)[C@H](CC(C)C)NC(=O)[C@H](Cc1c[nH]cn1)NC(=O)[C@H](Cc1ccccc1)NC(=O)[C@@H](NC(=O)[C@H](CC(C)C)NC(=O)[C@H](CC(=O)O)NC(=O)[C@H](CC(C)C)NC(=O)[C@H](CO)NC(=O)[C@@H](NC(=O)[C@@H]1CCCN1C(=O)[C@@H]1CCCN1C(=O)[C@H](CCC(=O)O)NC(=O)[C@H](CCC(N)=O)NC(=O)[C@@H](N)CO)[C@@H](C)CC)[C@@H](C)O)C(C)C)[C@@H](C)O)C(=O)N[C@@H](C)C(N)=O [compound 1, oCRF, reference compound] | – | – | – | – | – | – | Kd (rCRFR1 [1]): 0.6 ± 0.1 nM; Selectivity (mCRFR2β [2]; Table 1): 0.002; Kd (mCRFR2β [2]; Table 1, [^125I-Tyr^0]Svg as competitive ligand, recombinant mCRFR2β, HEK 293 membranes, read-out: Kd(mCRFR2β)): 162 ± 37.6 nM; Selectivity (mCRFR2β [2]; Table 3): 0.002; Emax at 0.001 µM (rCRFR1 [3]; Table 2, 1 μM CRF antagonist alone, cAMP production in HEK-rCRFR1 cells, oCRF (1 nM) = 1.00, read-out: rCRFR1 % IA (intrinsic activity)): 100%; rCRFR1 relative in vitro potency (rCRFR1 [3]; [11]): 1.00; Emax (rCRFR1 [3]; Table 4, 1 μM CRF antagonist alone, cAMP production, oCRF = 1.00, read-out: HEK-rCRFR1 cells rel. IA (relative intrinsic activity)): 100%; HEK-rCRFR1 cells rel. pot. (relative potency) (rCRFR1 [3]; Table 4, 1 μM antagonist, cAMP production stimulated by 1 nM oCRF, oCRF alone = 1.00): 1.00; EC50 (mCRFR2β [4]; agonist): 11.8 ± 1.96 nM
astressin, cyclo(30-33)[DPhe^12, Nle^21,38, Glu^30, Lys^33]h/rCRF(12-41) (peptide) | 4 | 1 | – | – | – | – | –
cyclo(29-32)[DPhe^11, Glu^29, Lys^32]rUcn(11-40) [compound 10] | – | – | – | – | – | – | Selectivity (mCRFR2β [2]; Table 1): 1.48; rCRFR1 relative in vitro potency (rCRFR1 [3]; [11]): 0.78 ± 0.10; mCRFR2β relative in vitro potency (mCRFR2β [4]): 0.89 ± 0.01
sauvagine (Svg) (peptide) | 4.5 | 0.109 | – | – | – | – | –
α-helical CRF(9-41) [compound 4, reference compound] | – | – | – | – | – | – | Selectivity (mCRFR2β [2]; Table 1): 6.61; rCRFR1 relative in vitro potency (rCRFR1 [3]; [11]): 0.58 ± 0.05; mCRFR2β relative in vitro potency (mCRFR2β [4]): 0.67 ± 0.02
{ATB}-HLLRKMIEIEKQEKEKQQAANNRLLLDTI (ends and bridges not checked, also called compound 17) [ATB-[His^12]Svg(12-40)] | – | 32.3 | 0.15 relative, oCRF = 1.00 | 0.54 relative, oCRF = 1.00 | 142 | – | –
YLLRKMIEIEKQEKEKQQAANNRLLLDTI (ends and bridges not checked, also called compound 20) [[Tyr^12]Svg(12-40)] | – | 1.63 | 0.06 relative, oCRF = 1.00 | 0.9 relative, oCRF = 1.00 | 996 | – | –
[dF]HLLRTILELARTQSQRERAEQNRIIFDSV (ends and bridges not checked) [[DPhe^11]rUcn(11-40)] | – | – | – | – | – | 0.07 relative, oCRF = 1.00 | –
[dF]HLLRTILELARTQSQREEAEKNRIIFDSV (lactam 19-22; ends not checked) [cyclo(29-32)[DPhe^11, Glu^29, Lys^32]rUcn(11-40)] | – | – | – | – | – | 0.1 relative, oCRF = 1.00 | –
[dF]ELLRTILELARTQSQRERAEQNRIIFDSV (ends and bridges not checked) [[DPhe^11, Glu^12]rUcn(11-40)] | – | – | – | – | – | 0.22 relative, oCRF = 1.00 | –
[dL]ELLRTILELARTQSQRERAEQNRIIFDSV (ends and bridges not checked) [[DLeu^11, Glu^12]rUcn(11-40)] | – | – | – | – | – | 0.23 relative, oCRF = 1.00 | –
[dF]HLLREVLEMTKADQLAQQAHSNRKLLDIA (ends and bridges not checked) [[DPhe^12]oCRF(12-41)] | – | – | – | – | – | 0.05 relative, oCRF = 1.00 | –
[dF]ELLRKMIEIEKQEKEKQQAANNRLLLDTI (not fully specified (C-terminus), also called compound 12) [[DPhe^11]Svg(11-40)] | 3.5 | 47.6 | 0.07 relative, oCRF = 1.00 | 0.75 relative, oCRF = 1.00 | 237 | 0.07 relative, oCRF = 1.00 | relative in vitro potency, inhibition of oCRF-stimulated cAMP production, HEK-rCRFR1 cells [9]: 0.75 relative, oCRF = 1.00; Kd [10]: 237 nM
[dF]HLLRKMIEIEKQEKEKQQAANNRLLLDTI (not fully specified (C-terminus)) [antisauvagine-30, [DPhe^11, His^12]Svg(11-40)] | – | 77 | – | – | – | 0.04 relative, oCRF = 1.00 | –
[dL]ELLRKMIEIEKQEKEKQQAANNRLLLDTI (not fully specified (C-terminus), also called compound 13) [[DLeu^11]Svg(11-40)] | 20.9 | 56.1 | 0.22 relative, oCRF = 1.00 | 0.92 relative, oCRF = 1.00 | 1670 | 0.22 relative, oCRF = 1.00 | relative in vitro potency, inhibition of oCRF-stimulated cAMP production, HEK-rCRFR1 cells [9]: 0.92 relative, oCRF = 1.00; Kd [10]: 1670 nM
LELLRKMIEIEKQEKEKQQAANNRLLLDTI (not fully specified (C-terminus), also called compound 14) [Svg(11-40)] | 15.4 | 37.9 | 0.14 relative, oCRF = 1.00 | 0.76 relative, oCRF = 1.00 | 831 | 0.14 relative, oCRF = 1.00 | relative in vitro potency, inhibition of oCRF-stimulated cAMP production, HEK-rCRFR1 cells [9]: 0.76 relative, oCRF = 1.00; Kd [10]: 831 nM
